In the nanobody polyreactivity screen of Harvey et al. (2022):

Assay: yeast display, Sf9 membrane polyspecificity reagent, FACS + sequencing; frameworks hold sequencing errors
Method in brief: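 In a synthetic yeast display library (Saccharomyces cerevisiae BJ5465), nanobody expression was induced with galactose for 36–48 hours. FACS gates were set low and high (top ~1%) using anti-HA fluorescence for expression and streptavidin fluorescence for binding of the Sf9 membrane reagent. Each polyreactivity label is drawn from the gate of origin.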

| Sequence | polyreactivity (PSR sort gate) |
| --- | --- |
| QVHLVESGGGLVQAGGSLRLSCAASGSTFRSNAMGWYRQAPGKERELVASITSRGGSTYYADSVKGRFTISRDNAKNTVYLQMNSLKPEDTAVYYCATARSYLTYSYHYDYWGQGTQVTVSS | low polyreactivity |
| QVQLVESGAGLVQAGGSLRLSCAASGSIYTLNAMGWYRQAPGKEMELVAAITSSGTGTYYADSVKGRFTISRDNAKNTVYLQMNSLKPEDTAVYYCAKDRPYWLSYGSWFKFNYWGQGTQVTVSS | low polyreactivity |
| QVQLVESGGGLVQAGGSLRLSCAASGSILVPYAMGWYRQAPGKERELVAAISIRTGSTYYADSVKGRFTISRDNAKNTVYLQMNSLKPEDTAVYYCNAAHRKPYTGLNYWGQGTQVTVSS | high polyreactivity |
| QVQLVESGGGLVQAGGSLRLSCAASGSTFHTYGLGWYRQAPGKERELVAAIDLSDGSTYYADSVKGRFTISRDNAKNTVYLQMNSLKPADTAVYYCKADYFPKPYRPDDYWGQGTQVTVSS | low polyreactivity |
| QVQLVESGGGLVQAGVSLRLSCAASGSTFVVNAMGWYRQAPGKERELVAAITQSGGSTFYADSVKGRFTISRDNAKNTVYLQMNSLKPEDTAVYYWGQGTQVTVSS | low polyreactivity |
| QVQLVESGGGLVQAGGSLRLSCAASGYIFGNYAMGCYRQAPGKERELVAAISKSGVTTYYADSVKGRFTISRDNAKNTVYLQMNSLKPEDTAVYYCNARSWRPINARYNEYDYWGQGTQVTVSS | low polyreactivity |
| QVQLVESGGRLVQAGGSLRLSCAASGSTFRGYAMGWYIPAPGKEWELVATITSGGSTKYADSVKGRFTISRDNAKNTVYLQMNSLKPEDTAVYYCNAVPRSWSPYRHWFDYWGQGTQVTVSS | low polyreactivity |
| QVQLVESGGGLLQAGGSLRLSCAASGRIIGWYAMGWYRPAPGKERELVAAISRGGTRTNYADSVKGRFTISRDNAKNTVYLQMNSLKPEDTAVYSCAAGGSWCQNGYWGQGTQVTVSS | high polyreactivity |
| QVQLVESGGGLVQAGGSLRLSCAASGLIFISYAMGWYRQAPGKERELVAAITSTVGGTYYADSVKGRFTISRDNAKNTVYLQMNSLKPEDTAVYYCAAEISYRWWYNLGFTSFVYWGQGTLVTVSS | low polyreactivity |
| QVHLVESGGGLVQAGGSLRLSCAASGIIFLVYAMGWYRQAPGKEWELVAGISGSATSTNYADSVKGRFTISRDNAKNTVYLQMNSLKPEDTAVYYCAASYYGYYVPDNSKYGYWGQGTQVTVSS | low polyreactivity |
| QVQLVESGGGLVQAGGSLRLSCAASGSILQSYAMGWYRQAPGKERELVAAISGSGGSTYYADSVKGRFTISRDNAKNTVYLQMNSLKPEDTAVYYCAKGPLYRTSRGEFGYWGQGTQVTVSS | low polyreactivity |
| QVQLVESGGGLVQAGGSLRLSCAASGRTFWYYAMGWYRQSPGKERELVAVITSGSSTYYADSVKGRFTISRDNAKNTVYLQMNSLKPEDTAVYYCNKLGRIQYDYWGQGTQVTVSS | high polyreactivity |
| QVQLVESGGGLVQAGGSLRLSCAASGIIFNRYAMGWYRQAPGKERELVAAISASGDSTYYADSVKGRFTISRDNAKYTVYLQMNSLKPEDTAVDYCAADYGYRYDYWGHGTQVTVSS | low polyreactivity |
| QVQLQESGGGLVQAGGSLCLSCAASGTNFFDGHMGWYRQAPGKEREFVAAINPGGSAYYADSLKGRLPLAAITHTVYLQMNSLKPEDTAVYYCAAILFDVYGYYYWGQGTHVTVSS | low polyreactivity |
| QVQLVESGGGLVQAGGSLRLSCAASGGTRFTNAMGWYRQAPGKEREMVAAISWRGGRTYYADSVKGRFTISRDNAKNTVYLQMNSQKPEDTAVYYCAAASAAGYDYWGQGTQVTVSS | low polyreactivity |
| QVQLVESVGGLVQAGGSLRLSCAASGRTLPWYAMGWYRQAPGKERELVAVIRWIGGRTYYADSVKGRFTISRDNAKNTVYLQMNSLKPEDTAVYYCAARPHYYYGWYYYWGQGTQVTVSS | high polyreactivity |
| QVQLVESGGCLVQAGGRLRISSAASGSIFAINDIGWYRQAPGKERELVAAIRSGGRTYYADSVKGRFTISRDNAKNTVYLQMNSLKPEYTAVYYCNAGGKWIGSDNWGQGTQVTVSS | high polyreactivity |
| QVQLVESGGGLVQAGGSLRLSCAASGRILLRNVMGWYRQAPGKERELVAVITRTGITYYADSVMGRFTITRDNAKNTVYLQMTSLKPEDTAVYYCAAGLPKYEHDYWGQGTQVTVSS | low polyreactivity |
| QVQLVESGGGLVQAGGSLRLSCAASGIIFYDYAMGWYRQAPGKERELVAAISRSGGSTYYADSVKGRFTISRDNAKNTVYLQMNSLKPEDTAVYYCNADEVVWGYNYWGQGTQVTVSS | low polyreactivity |
| QVQLVESWGGLVQAGGSLRLSCAASGFTFRGYARGWYRQAPGKERELVAAISRSGGSTNFADSVKGRFTISRDNAKNTVYLQMNSLKPEDTAVYYCAAGWNPYDYWGQGTQVTVSS | high polyreactivity |
| QVPLVESGGGLVQAGGSLRLSCAASGRLFGYNTMGWYRQAPGKERELVARISYDVDSTYYADSVKGRFTISRDNAKNTVYLQMNSLKPEDTAVYYCNARRSNLGSYIEYFGFDYWGQGTQVTVSS | low polyreactivity |
| QVQLVESGGGLVQAGGSLRLSCAASGRTIVAYAMGWYRQAPGKERELVAAISWSTGSTYYADSVKGRFTISRDNAKNTVYLQMNSLKPEDTAVYYCAGLVWAPRDYWGQGTQVTVSS | low polyreactivity |

| Sequence | polyreactivity (PSR sort gate) |
| --- | --- |
| QVQIVESGGGLVQAGGSLRLSCAASVRTQRYYDMGCYRQAPVKERELVAAISSGGSTYYGDSLKGRFSISRDNAKNTVYLEMNSLKPEDTEVYYCAKRVSNWVSGGGYYYWGQCTQVTVSS | high polyreactivity |
| QVQLVKSGGGLVQAGGSLRLSCAASGSTFYNAMGWYRQAPGKEREWVAAISIGGSTYYADSVKGRFTISRDNAKNTVYLQMNSLKPEDTAVYYCNSDLYYWLRYYDRNDYWGQGTQVTVSS | low polyreactivity |
| QVQLVESGGGLVQAGGSLRLSCAASGSTFHIYAMGWYRQAPGKERELVAGITRGSTYYADSVKGRFTISRDNAKNTVYLQMNSLKPEDTAVYYCAADVYGFRYSESDYWGQGTQVTVSS | low polyreactivity |
| QVQLVESGGGLVQAGGSLRLSCAASGSIFGVNAMGWYRQAPGKERELVAAISNSGVRKYYADSVKGRFTISRDNAKNTVYLQMNSLKPEDTAVYYCARTYQVGDSIDDYWGQGTQVTVSP | low polyreactivity |
| QVQLVYSGGGLVQAGGSLRLSCAASGLILWPYTMGWYRQSPWKERELVAAISSSGGSTYYADSVKGRFTISRDNAKNTVYLQMNSLKPEDTAVYYCAAVCWVISGKNGAGSMDYWGLGTQVTVSS | high polyreactivity |
| QVQLVDSGGGLVQAGGSLRISCAASGSTFSINTMGTYRQAPGKERELVAAITTRGSSTYYADSVKGRFTISRDNAKNTVYLKMNSLKPEDTAVYYFNAPYRVTGGRYRWYDYWGQATQVTVSS | high polyreactivity |
| QVQLEESGGGLVQAGGSLRLSCAASGSIFLNYGMGWYRQAPGKERELVAGISNGGSTNYADSVKGRFTISRDNAKNTVYLQMNSLKPEDTAVYYCARPAYKSRGKRFDYWGQGTQVTVSS | low polyreactivity |
| QVQLVDSGGGLVQAGVSLRLSCPASGSIFRPNAMGWYRQAPGKERELVAAINTSDDSTYYADSVKGRFTISRDNAKNTVYLQMNSLIREDTAVYYCAAEYYAYAYGDDYDYWGQGTQVTVSS | low polyreactivity |
| QVQLVESGGGLVQAGGSLRLSCAASGSILTVYAMGWYRQAHGKERELVARIRSGDRTYYADSVKGRFTISRDNAKNTVYLQMNSLKPEDTAVYYCAAGSQRRYYHTNWDSFNYWGQGTQVTVSS | low polyreactivity |
| QVQLVESGGGLVQAGGSLRLSCAASGRIFGKYAMGWYRQAPGKERELVAAIRITGGSTYYADSVKGRFTISRDNAKNTVYLEMNSLKPEDTAVYYCAAVYLKTYYWGQGTQVTVSS | high polyreactivity |
| QVQLVESGGGLVQAGGSLRLSCAPSGRIFGHYAMGWYRQATGKERELVAAINWRGGSTYYADSVNGRFTISRDNAKNTVYLQMNSLKPEDTAVYYCAADWTKARDSIYDYWGQGTQVTVSS | low polyreactivity |
| QGQLVESGGGLVQAGGSLRLSCAASGFTSSRNAMGWYIQEAGKERELVATISSGGDTYYADSVKGRFTISRDNAKNTVYLQMNSLKPEDTAVYYCNKDPLYAWGYDYWGQGTQVTVSS | low polyreactivity |
| QVQLVESGGGLVQAGGSLRLSCAASGFIFGTYAMGWYRQAPGNERELVAAISVGGGSTYYADSVKGRFTISRDNAKNTVYLQMNSLKPEDTAVYYCAAVQLYQKHQITYVAHEYWGQGTQVTVSS | low polyreactivity |
| QVQLVESGGGLVQAGGSLRLSCAASGITLYANAMGWYREAPGKERELVAVISKGSGSTYYPDSVKGRFTISRDNAKNTVYLQMNSLKPEDTAVYYCAAGRKGSMYYWGQGTQVTVSS | high polyreactivity |
| QVQLQESGGGLVQAGGSLRLSCAASGSIFHLHIKCWYRQAPGKERESVAAISYGTSTYYADRVKGRFTICRDNAKNTVYLQMNSPKPDDTAVYYCAALFLVSKHHHYWGEGTQVTVSS | low polyreactivity |
| QVQLVESGGGLVQAGGSLRLSCAASGSIFWRYAMGWYRQAPGKERELVAVISDRGGITYYADSVKGRFTISRDNAKNTVYLQMNSLKPEDTAVYYCNAVDSDRSDPSEYDYWGQGTQVTVSS | low polyreactivity |
| QVQLQESGGGLVQAGGDLRLSCAASGTIFRDYIMGWYRQAPGKEREFVAGIDRGANTNYADSVKGRFTISRDNAKNTVYLQMNSLKPEDTAVYYCAADWWRVDMDYWGQGTQVTVSS | low polyreactivity |
| QVQLVESGGGLVQAGGSLRLSCAASGLIFGYNAMGWYRQAPGKERELVAGISSGGSTNYADSVKGRFTISRDNAKNTVYLQMNSLKPEDTAVYYCNADGYLAERFVIRLDEYRDYDYWGQGTQVTVSS | low polyreactivity |
| QVQLVESGGGLVQAGGSLRLSCAASGLIFVINARGWYRQAPGKERELVAAIDYSGGSTYYADSVKGRFTISRDNAKNTVYLQMNSLKPEDTAVYYCAASKIGYWGDYFRYYYWGQGTQVTVSS | low polyreactivity |
| QVQLVESGGGLVQAGGSLRLSCAASGIIFYGYVMGWYRQAPGKERELVAAISKSGGSTYYADSVKGRFTISRDIAKNTVYLQMNSLIPEDTAVYYCAAERKSFYRYNYWGQGTQVSVSS | high polyreactivity |
| QVQLVESGGGLVLAGGSLRLSCAASGRTFGVYAMGWYRQAPGKERELVADITYRDGSTYYADSVKGRFTISRDNAKNTVYLQMHSLKPEDTAVYYCAAAESTWFDWVWMDYWGQGTQVTVSS | high polyreactivity |
